Experiments:
[1] = target: rh-α5β1 protein bound to human FN protein (Homo sapiens, UniProt P05556+P08648); assay: SPR dissociation of rh-α5β1 bound to FN; format: biochemical; conditions: 1 μM antibody injected for 250s after 400 nM rh-α5β1; 25° C.
Method: Surface Plasmon Resonance (SPR) and a cell-based assay were used to test the effect of the antibodies on the dissociation of rh-α5β1 protein bound to human FN protein. The antibodies tested are representatives of the two groups of antibodies identified in Example 6 that define two different epitope binding groups and have distinct ligand blocking properties. […] In addition, the small molecule antagonist cyclic RGD (cRGD; Creative-Peptides, Shirley, New York, 11967, cat. no. CP22175) was tested as a comparator that inhibits α5β1 integrin binding to FN by competing at the ligand binding pocket.
Description of the SPR method used: FN protein dissolved in water was manually printed onto the bare gold-coated (thickness 47 nm) PlexArray Nanocapture Sensor Chip (Plexera Bioscience, Seattle, WA) at 40% humidity. The chip was incubated in 80% humidity at 4° C. for overnight and rinsed with 10×PBST (0.1M phosphate buffer, 1.54M NaCl, pH7.4, 0.5% Tween20) for 10 minutes (min), 1×PBST (0.01M phosphate buffer pH7.4, 0.154M NaCl, 0.05% Tween20) for 10 min, and deionized water twice for 10 min. The chip was then blocked with 5% (w/v) non-fat milk in water overnight, and washed with 10×PBST for 10 min, 1×PBST for 10 min, and deionized water twice for 10 min before being dried under a stream of nitrogen prior to use. SPR measurements were performed using PlexArray HT (Plexera Bioscience, Seattle, WA), a high-throughput surface plasmon resonance imaging (SPRi) platform. Collimated light (660 nm) passes through the coupling prism, reflects off the SPR-active gold surface, and is received by the CCD camera. Buffers and samples were injected by a non-pulsatile piston pump into the 30 μL flow cell that was mounted on the coupling prim. […] SPR binding responses (a.u.) were recorded and plotted over time.

U87MG cells = assay: Cellular detachment of U87MG cells from FN coated plates; format: cell-based; conditions: antibodies 2.0-0.016 μg/mL, cRGD 20-0.16 μM; 1 hour and 3 hours
Method: The A-15B08 and A2-7A05 antibodies and cRGD were also tested for their ability to induce dissociation of cellular α5β1 integrin from FN. U87MG cells (HTB-14™, ATCC, Manassas, VA) which were originally derived from a Glioblastoma tumor, are known to express α5β1 integrin, and adhere to FN coated plates. After an overnight incubation on FN coated plates, the U87MG cells formed a loosely packed monolayer and have extended spindle shapes. If the cells are induced to detach from the plates, by trypsin for example, the attachment points are released, and the cells become round. This type of change in morphology was used to assess whether the antibodies and the small molecule inhibitor cRGD can induce U87MG cells to dissociate from FN coated plates.
The following method was used to assess cellular detachment activity: A 96-well cell culture plate (Thermo Fisher Scientific, Waltham, MA, cat. no. 165306) was coated with FN (Human Fibronectin, R&D Systems, Minneapolis, MN 55413, cat. no. 1918-FN) by incubation of 50 uL per well 32 μg/mL FN in 1×PBS for 1 hour at 37° C., then washed 2× with EMEM media (ATCC, Manassas, VA, cat. no. 30-2003) supplemented with 10% Fetal Bovine Serum (FBS; ATCC, Manassas, VA, cat. no. 30-2021). U87MG cells were plated at 20,000 cells per well in EMEM media+10% FBS overnight to allow for maximum adherence. The next day the media was replaced with fresh media that included a 1:5 dilution series of antibodies A-15B08, A2-7A05 or isotype control IgG4 at concentrations of 2.0, 0.4, 0.08 and 0.016 μg/mL or cRGD at 20, 4, 0.8 and 0.16 μM. All tests were run in duplicate. Cell morphology was assessed, and images were captured using a 10× objective of an ECHO Rebel light microscope (ECHO, San Diego, CA).

[2] = target: T1, binding of α5β1 integrin to fibronectin (FN) (Homo sapiens, UniProt P05556+P08648); assay: Quantitative FN inhibition (FN-blocking) assay in ELISA format; format: biochemical; conditions: by ELISA
T1 construct: purchased Acro Biosystems IT1-H52W5
Description: To determine whether the 9 unique hybridoma clones selected as described in Example 4 were able to inhibit the binding of α5β1 integrin to fibronectin (FN), the antibodies were first purified from hybridoma supernatants by Protein A chromatography, protein concentrations measured by BCA assay (Pierce™ BCA Protein Assay Kit; Thermo Fisher Scientific, Waltham, MA, cat. no. 23225) and then tested in a quantitative FN inhibition assay in an ELISA format.
Immulon4 HBX ELISA 96-well plates were coated with FN by incubation overnight at 4° C. with 2.5 μg/mL human FN (R&D Systems, Minneapolis, MN 55413, cat. no. 1918-FN) in 1×PBS (0.01M phosphate buffer and 0.154M NaCl, pH 7.4). Plates were then washed 3 times with Wash Buffer (1× Tris Buffered Saline containing 0.05% Tween20), blocked with 2% BSA in 1×TBS for 2 hours at room temperature (RT). Antibodies were diluted in Standard Diluent (2% BSA, 1×TBS, 0.05% Tween20) containing 0.1 μg/mL rh-α5β1-6×His tagged protein (Acro Biosystems, Newark, DE, cat. no. IT1-H52W5), to generate an 11 point 1:3 antibody dilution series ranging from 10,000 ng/mL to 0.17 ng/mL. Isotype control antibody (Control Ab; Ms IgG2a EMD Millipore Corp, Billerica, MA, cat. no. PP102) was used to normalize data across different assay runs. For the assays, 100 uL of the antibody dilution series/His-tagged-α5β1 mixture was added to the wells after the blocking solution was removed and wells were washed 3 times. Following 1 hour at RT, the wells were washed 3 times, incubated with biotinylated Anti-6×His-Tag Ab (Invitrogen, Carlsbad, CA, cat. no. MAI-21315-BTIN) at 1:1000 in Standard Diluent for 1 hour, washed 3 times, incubated for 30 minutes with poly-HRP Streptavidin (Thermo Fisher Scientific, Waltham, MA, cat. no. N200), washed 4 times, incubated with TMB substrate (Thermo Fisher Scientific, Waltham, MA, cat. no. N301) for 2-5 minutes, followed by addition of ELISA Stop Solution (Invitrogen, Carlsbad, CA, cat. no. SS04). Absorbance 450 nm was measured. Data points were normalized to the isotype Control Ab values at each concentration and reported as % Absorbance 450 nm normalized to Control Ab. Non-linear regression analysis was used to fit curves (4-parameter) to the data using GraphPad Prism version 9.0.2 (GraphPad Software, LLC, San Diego, CA).
Freeze-thaw stability was tested on a small aliquot of each chimera antibody by overnight storage at −80° C. followed by thaw on ice, repeated three times. […] IC50s were calculated by non-linear regression analysis curve-fitting (4-parameter) of the ELISA data (FIG. 5) using GraphPad Prism version 9.0.2 (GraphPad Software, LLC, San Diego, CA). […]

rh-α5β1 = rh-α5β1 (Homo sapiens, UniProt P05556+P08648); assay: Competition binding studies by Biolayer Interferometry (epitope groups); conditions: for Response (nm) / % Response: secondary mAb pre-mixed with 20 nM rh-α5β1; for % Response: relative to antigen alone
Procedure, shortened: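 Pre-mixed competition BLI: FN-blocking lead antibodies A2-7A05, C-14D12 or A-15B08 loaded on sensors (700 s), quenched, baselined, then exposed 600 s to partner antibody preincubated 1 hr with rh-α5β1. Response relative to antigen alone: >120% = antibodies pair, <80% = antibodies block.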

[3] = target: T2, rh-α5β1 in active conformation (binding to 12G10) (Homo sapiens, UniProt P05556+P08648); assay: 12G10 conformation assay (α5β1 integrin binding to 12G10); conditions: human IgG4 chimeric antibodies; 0.5 mM MnCl2
T2 construct: purchased Acro Biosystems IT1-H52W5
Method: A Nunc MaxiSorp Flat-Bottom 96-well plate (Invitrogen, Waltham, MA, cat. no. 44-2404-21) was coated with 12G10 antibody at 2 μg/mL in 0.2M carbonate-bicarbonate buffer, pH9.4 (Thermo Scientific, Rockford, IL, cat. No. 28382) by incubation overnight at 4° C. Plates were then washed 3 times with Wash Buffer (1× Tris Buffered Saline containing 0.05% Tween20), then blocked with 2% BSA in 1×TBS for 2 hours at room temperature (RT). The human IgG4 chimeric versions of the antibodies were diluted in Standard Diluent (2% BSA, 1×TBS, 0.05% Tween20) containing 0.05 μg/mL rh-α5β1-6×His tagged protein (Acro Biosystems, Newark, DE, cat. no. IT1-H52W5) and 0.5 mM MnCl2 (TEKnova, Hollister, CA, cat. no. M0350) to generate a 7 point 1:5 antibody dilution series ranging from 10,000 ng/mL to 0.64 ng/mL. In addition to human IgG4 chimeric antibodies A-15B08, C-14D12 and A2-7A05, three other antibodies tested included IgG4 isotype control (human IgG4, Kappa, anti-fluorescein Ab00102-13.0, Absolute Antibody, Wilton, UK), anti-integrin alpha-5 clone SNAKA51 (MilliporeSigma, St. Louis, MO, cat. no. MABT201) known to induce integrin alpha-5 into an active conformation, and finally the 12G10 antibody itself which can directly compete with the 12G10 bound to the MaxiSorp plate. For the assays, 100 μL of the antibody dilution series, His-tagged-α5β1 mixture was added to the wells after the blocking solution was removed and wells were washed 3 times. […] Absorbance 450 nm was measured. Data points were normalized to the absorbance of the well containing no antibody for each dilution series and reported as Percent Binding. […]

rh-α5β1, sequence (P08648 42-894 limits assumed): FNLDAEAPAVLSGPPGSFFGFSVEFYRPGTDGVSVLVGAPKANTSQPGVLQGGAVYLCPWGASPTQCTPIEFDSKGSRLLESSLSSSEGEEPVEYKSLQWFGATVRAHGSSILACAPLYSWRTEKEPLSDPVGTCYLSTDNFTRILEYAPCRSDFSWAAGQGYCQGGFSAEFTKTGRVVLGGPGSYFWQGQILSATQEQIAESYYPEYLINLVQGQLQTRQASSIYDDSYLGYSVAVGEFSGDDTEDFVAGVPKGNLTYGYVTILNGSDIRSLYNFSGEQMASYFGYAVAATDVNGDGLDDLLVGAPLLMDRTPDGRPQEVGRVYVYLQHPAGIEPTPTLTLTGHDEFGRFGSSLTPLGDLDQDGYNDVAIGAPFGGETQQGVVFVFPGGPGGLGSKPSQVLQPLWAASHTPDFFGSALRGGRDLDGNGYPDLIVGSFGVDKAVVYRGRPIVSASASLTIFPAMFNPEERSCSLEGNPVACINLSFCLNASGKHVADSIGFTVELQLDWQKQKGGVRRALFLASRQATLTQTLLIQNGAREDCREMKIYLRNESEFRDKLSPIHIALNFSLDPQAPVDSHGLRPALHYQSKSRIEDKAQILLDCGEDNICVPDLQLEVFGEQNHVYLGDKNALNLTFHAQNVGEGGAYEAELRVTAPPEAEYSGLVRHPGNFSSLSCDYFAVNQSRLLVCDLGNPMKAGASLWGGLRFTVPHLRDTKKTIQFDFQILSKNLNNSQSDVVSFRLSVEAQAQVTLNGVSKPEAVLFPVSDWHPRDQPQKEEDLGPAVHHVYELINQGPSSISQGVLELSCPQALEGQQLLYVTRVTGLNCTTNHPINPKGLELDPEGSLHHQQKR
rh-α5β1, sequence (P08648 895-995 limits assumed): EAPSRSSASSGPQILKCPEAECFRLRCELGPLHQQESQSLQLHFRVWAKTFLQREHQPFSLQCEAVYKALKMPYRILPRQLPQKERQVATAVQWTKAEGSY
rh-α5β1, sequence (P05556 21-728 limits assumed): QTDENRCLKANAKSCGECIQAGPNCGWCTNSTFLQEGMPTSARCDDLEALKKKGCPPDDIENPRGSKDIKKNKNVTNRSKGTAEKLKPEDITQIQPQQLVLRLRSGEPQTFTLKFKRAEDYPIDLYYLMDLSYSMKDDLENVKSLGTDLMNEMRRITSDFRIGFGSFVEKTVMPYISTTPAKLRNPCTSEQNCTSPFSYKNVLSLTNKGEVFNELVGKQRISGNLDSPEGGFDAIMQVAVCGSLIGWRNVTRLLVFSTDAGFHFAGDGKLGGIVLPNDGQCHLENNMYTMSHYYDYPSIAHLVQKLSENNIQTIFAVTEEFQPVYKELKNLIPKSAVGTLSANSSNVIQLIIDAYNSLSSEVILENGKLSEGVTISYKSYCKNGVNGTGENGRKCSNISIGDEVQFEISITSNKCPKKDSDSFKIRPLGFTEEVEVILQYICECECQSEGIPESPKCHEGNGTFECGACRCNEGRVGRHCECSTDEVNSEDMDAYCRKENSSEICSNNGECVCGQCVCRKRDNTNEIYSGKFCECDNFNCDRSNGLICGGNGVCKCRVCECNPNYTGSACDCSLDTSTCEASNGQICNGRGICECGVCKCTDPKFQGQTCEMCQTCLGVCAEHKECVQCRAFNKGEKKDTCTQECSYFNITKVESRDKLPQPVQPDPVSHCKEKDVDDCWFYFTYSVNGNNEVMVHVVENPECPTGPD
rh-α5β1 protein bound to human FN protein, sequence (P08648 42-894 limits assumed): as the sequence (P08648 42-894 limits assumed) above
rh-α5β1 protein bound to human FN protein, sequence (P08648 895-995 limits assumed): as the sequence (P08648 895-995 limits assumed) above
rh-α5β1 protein bound to human FN protein, sequence (P05556 21-728 limits assumed): as the sequence (P05556 21-728 limits assumed) above
T1 sequence (P08648 42-894 limits assumed): as the sequence (P08648 42-894 limits assumed) above
T1 sequence (P08648 895-995 limits assumed): as the sequence (P08648 895-995 limits assumed) above
T1 sequence (P05556 21-728 limits assumed): as the sequence (P05556 21-728 limits assumed) above
T2 sequence (P08648 42-894 limits assumed): as the sequence (P08648 42-894 limits assumed) above
T2 sequence (P08648 895-995 limits assumed): as the sequence (P08648 895-995 limits assumed) above
T2 sequence (P05556 21-728 limits assumed): as the sequence (P05556 21-728 limits assumed) above

Q: How did the “effect on dissociation of rh-α5β1 protein bound to FN (SPR response)” value [1] turn out when cyclic RGD [cRGD, reference compound] was run?
A: did not have any discernable effect on the dissociation rate

Q: And the “cellular detachment (cell rounding) of U87MG cells from FN coated plates” value (U87MG cells)?
A: did not show significant cell detachment

B1: C-14D12: anti-α5β1 antibody, VH SEQ ID NO:109, VL SEQ ID NO:110; tested as mouse hybridoma antibody and as human IgG4 chimera (antibody, V domains shown)
VH: QVQLKESGPDLVAPSQSLSITCTVSGFSLTDYGVHWVRQPPGKGLEWLVVIWSDGSTTYNSALKSRLSITKDTSKRQVFLKMNSLQTDDTAMYYCARHAPSFIRYGSRYDALDYWGQGTSVTVSS
VL: QIVLTQSPAIMSASLGERVTLTCTASSSVTSSFLHWYQQKPGSSPKLWIYSTSNLASGVPARFSGSGSGTSYSLTISSMEAEDAATYYCHQYHRSPPTFGGGTKLEIK
modifications: C-14D12 VH Sequence; C-14D12 VL Sequence
notes: tested as mouse hybridoma antibody and as human IgG4 chimera
Q: How did the “class of FN binding blocker” value [2] turn out when B1 was run?
A: strong blockers of FN binding

Q: What about the “binding of rh-α5β1 complexed with antibody to A2-7A05 on the sensor” value (rh-α5β1; antibody preincubated with rh-α5β1, A2-7A05 immobilized on sensor) of the same molecule?
A: able to bind

Q: And the “binding of rh-α5β1 complexed with antibody to A-15B08 on the sensor” value (rh-α5β1; antibody preincubated with rh-α5β1, A-15B08 immobilized on sensor)?
A: not able to bind

Q: And the “Response (nm)” value (rh-α5β1; immobilized mAb A2-7A05)?
A: 0.11 nm

Q: And the “% Response” value (rh-α5β1; immobilized mAb A2-7A05)?
A: 309.19%

Q: And the “Response (nm)” value (rh-α5β1; immobilized mAb A-15B08)?
A: −0.15 nm

Q: And the “% Response” value (rh-α5β1; immobilized mAb A-15B08)?
A: −72.85%

Q: And the “Response (nm)” value (rh-α5β1; immobilized mAb C-14D12)?
A: −0.11 nm

Q: And the “% Response” value (rh-α5β1; immobilized mAb C-14D12)?
A: −50.49%

Q: What about the epitope group (rh-α5β1; two epitope groups among 6 antibodies) of the same molecule?
A: second group

Q: And the “reduction of α5β1 integrin binding to 12G10” value [3]?
A: approximately 50%

Source: US20240279345A1, “ALPHA 5 BETA 1 INTEGRIN BINDING AGENTS AND USES THEREOF” (PASITHEA THERAPEUTICS CORP., priority 2021, published 2024)
